Measurements taken from the nanobody polyreactivity screen of Harvey et al. (2022).

assay: yeast display, Sf9 membrane polyspecificity reagent, FACS + sequencing; frameworks hold sequencing errors
Summary of the method: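 In a synthetic yeast display library (Saccharomyces cerevisiae BJ5465), nanobody expression was induced with galactose for 36–48 hours. FACS gates were set low and high (top ~1%) using anti-HA fluorescence for expression and streptavidin fluorescence for binding of the Sf9 membrane reagent. Each polyreactivity label is drawn from the gate of origin.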

Sequence | polyreactivity (PSR sort gate)
QVQLVESGGRLVQAGGSLRLSCAASGRTIGLNGMGWYRQAPGTERELVAGISWSGGSTNYADSVKGRFTISRDNAKNTVYLQMNSLKPEDTAVYYCAADFVYYVVNDFGWSYAYEYWGQGTQVTVSS | low polyreactivity
QVQLVESGGRLVQAGGSLRLSCAASGSIFKYYVMGWYRQAPGKERELVAAISSGGGSTYYADSVKGRFTISRDNAKNSVYLQMNSLKPEDTAVYYCNKKYRSRWQGPFDYWGQATQVTVSS | high polyreactivity
QVQLVESGGRLVQAGGSLRLSCAASGSIFSYYAMGWYRQATGKERELVASISSAGSTNYADSVKGRFTISRDNAKNTVYLQMNSLKPEDTAVYYCNTDDDSSSTGYYSWGQGTQVTVSS | low polyreactivity
QVQLVESGGRLVQAGGSLRLSCAASGSIFYGYTMGWYRQAPGKERELVATISGRGGSTYYADSVKGRFTISRDNAKTTVYLQMNSLKPEDTAVYYCNSGKYYYNYGFWGQGTQVTVSS | high polyreactivity
QVQLVESGGRLVQAGGSLRLSCAASGSTFARNAMGWYRQAPGKERELVAAISSSGGRTYYADSVKGRFTISRDNAKNTVYLQMNSLKPEDTAVYYCAAAFSLGMYWGQGTQVTVSS | high polyreactivity
QVQLVESGGRLVQAGGSLRLSCAASGSTFQYNAMGWYRQAPGKERELVAAISLSGGSTYYADSVKGRFTISRDNAKNRVYLQMNSLKPEDTAVYYCAARQWYRYKVRFDYWGQGTQVTVSS | high polyreactivity
QVQLVESGGRLVQAGGSLRLSCAASGSTIYGYAMGWYRQAPGKERELVATIRSGGSTYYADSVKGRFTISRDNAKNTVYLQMNCLIPEDTAVYYCAAKRWRGYGGGYSWGQGTQVTVSS | high polyreactivity
QVQLVESGGRLVQAGGSLRLSCAASGSTLFAYAMGSYRQAPGKETELVASISSGGNTNYADSVKGRFTISRDNSKNSVYLQMYSLKPEDTAVYYCNAGVPYHYPSYTYLYYYWGQGTQVTVSS | low polyreactivity
QVQLVESGGRLVQAGGSLRLSCAASGYIFFHYSRGWYRQAPGTERELVAANTSGGSTNYADSVKGRFTMSRDNAKNTDYLQMNSLKPEDTAVYYCAARGWINSKRLYALWGFDYWGQGTQVTVSS | low polyreactivity
QVQLVESGGRLVQAGGSLRLSCAPSGIILSLYAMGWYRQAPGKVRELVATIRFSGVSTYYADSVKGRFTISRDNAKNTLYLQLTSLKPEDTAVYYCNKHLATTFTVSRFDYWGQGTQVTVSS | low polyreactivity
QVQLVESGGRLVQAGGSLRLSCAPSGRIFQPNVMGWSRQAPGKERELVAAIRSGSSTYYADSVKGRFTISRDNAKYSVYLQMNSLKPEDTAVYYCAARLFLPGYTRVNYLGQGTQVTVSS | high polyreactivity
QVQLVESGGRLVQAGGSLRLSCAPSGRTLGRYTMGWYRQAPGKERELVAGISSGGSTNYADSVKGRFTISRDNAKNTVYLQMNSLKPEDTAVYYCNSRGYSYGARYYYWGQGTQVTLSS | high polyreactivity
QVQLVESGGRLVQAGGSLRLSCDASGRTSRRNAMGWYRQAPGKERELVAGITWRGGSTYYADSVKGRFTISRDNAKNTVYLQMNSLKPEDPEVYYCAAYTYPHEYDYWGQGTQVTVSS | low polyreactivity
QVQLVESGGRLVQAGGSLRLSCDASGSIFAYYAMGGYRQAPGKERELVAAMCSGGGTYYADSVKGRFTISRDKAKTTVYLQMNSLKPEDTAVYYCAADGLWHIFYPGTGVDYWGQGTQVTVSS | low polyreactivity
QVQLVESGGRLVQAGGSLRLSCPASGIIRGTNAMGGYRQAPGKERELVASITSGAGITYYADSVKGRFTISRDNAKNTVYLQMNSLKPEDTAVYYCNTYPYLWGQGTQVTVSS | low polyreactivity
QVQLVESGGRLVQAGGSLRLSCPDSGSTFILNAMGWYRQAHGKERELVATISSSVTSTYYADSVKWRFTISRDHAKNTVYLQMNSLKPEDTAVYYCNADYYTTSYLQRFYHYGVEYDYLGQGTQVTVSS | low polyreactivity
QVQLVESGGRLVQAGGSLRLSGAASGIIFRTNAMGWSRQAPGKEREFVAAISAGGTRTYYADSVKGRFTISRDYAKNTVYLQMNSLKPEDTAVYFCAAASGYDYWGQGTQVTVSS | high polyreactivity
QVQLVESGGRLVQAGGSLRLSSAPSGSIFFWYAMGWYRQAPGKERELVAAITQRTGSTYYADSVKGRFTISRDNAKNTVYLQMNSLKPEDTAVYYCAAKRLRRSFTGNYWGQGTQVTVSS | high polyreactivity
QVQLVESGGRLVQAGGSLRLTCAASGRIFSVNAMGWYRQAPGKERELVAAITPGASTNYADSVKGRFTISRDNAKNTVYLQMTSLKPEDTAVYYCAAGWVSFEDWVLGSYYEYDYWGQGTHVTVSS | low polyreactivity
QVQLVESGGRLVQAGGSLRLTCAASGSTFIIYAIGWSRQAPGQERELVAASTSGGSTYYADSVKGRFRISRDNAKNSVYLQMNSLKQEDTAVYYCAARAWRGSFRDGYWGQGTQVTVSS | high polyreactivity
QVQLVESGGRLVQAGGSLSLSCAASGIILLHYAMGWYRQAPGKERELVAAISSSGGRTYYADSVKGRFTISRDTAKITFYLQLTSLKPEDTAVYYCNTLTRLVYDGMGYWGQGTQVTVSS | high polyreactivity
QVQLVESGGRLVQARGSLRLSCAPSGSIFYSNAMGSYRQAPGKEREFVAGIRSGGITNYADSVKGRFTISRDNAKNTVYLQMTSLKPEDTAVYYCAKLKDHGRYAYAFDYWRQGTQVTVSS | low polyreactivity

Sequence | polyreactivity (PSR sort gate)
QVQLVESGGRLVQAVGRLRLSCAASGFIFSRYAMRWYRPAPGKERELVAVISYSGGITYYADSVKGRFTISRDNAKNTVYLQMNSLKPEDTAVYYCAVGGTPRYSKYDYWGQGTQVTVSS | low polyreactivity
QVQLVESGGRLVQEGGSLRLSCAASGSSLRSYAMGRYRQAPGKERELLAAISGSGDSTYYADSVKGRFTISRDNAKNTVYLQMNSLKPEDTAVYYCNAVFAFNGYVYWGQGTQVTVSS | low polyreactivity
QVQLVESGGRLVQEGGSLRLSCAASGSTFKQYAMGWYRQAPGKEWELVAAISRSGSRTYYADSVKGRFTISRDNAKYTVYLQMNSLKPEDTAVYYCAAERRSTAGWLYDYWGQGTQVTVSS | high polyreactivity
QVQLVESGGVIFQAGGILRLICAASGRIFARNAMGWYRQAPGKERELVAAISRSGGPTYYADSVKGRFTISRDNAKNSVYLQMNSLKTEDTGVYYCAADHYPWWAWEFDYWGQGTQVTVSS | low polyreactivity
QVQLVESGGVLGQAGGSLRLSCAASGFIFSTYTMAWYRPAPGKERDLVAAISRSGGRTYYADSVKGRFTISRDNAKYTVYLQMNSLKPEDTAVYYCNAAKGGRYPDYDYWGQGTQVTVSS | high polyreactivity
QVQLVESGGVLVQAGASLRLSCAASGFTFGFYGMGWYRQAPGKERELVARITWRSGSTYYADSVKGRFTISRDNAKNTVYLQMNSLKPEDTAVYYCNKVPSYDFLGMDYWGLGTQVTVSS | low polyreactivity
QVQLVESGGVLVQAGASLRLSCAASGITFVTYAMGWYRQAPGKERELVADISSSGGSSYYADSVKGRFTISLDNAKNTVYLQMNSLKPEDTAVYYWAALATFYPEFDYWGQGTQVTVSS | low polyreactivity
QVQLVESGGVLVQAGCSLRLSCASSGITFKYYAMGRYSQAPGKEREFVAYISARGGGTYYADSVKGRFTISRDNAKNSVYLQMNSLKPEDYAVYYFNAGLIYHQLYSNLYDYWGQGTQVTVSS | high polyreactivity
QVQLVESGGVLVQAGGILRLSCAASGRIFYGNTMGWYRQAHGKERELVAAISRSGGSTYYADSVKGRFTSSRDNAKNTVYLQMNSLKPEDTAVYYCAAKRSWGYDYWGLGTQVTVSS | high polyreactivity
QVQLVESGGVLVQAGGILRLSCAASGSIFYMYAMGWYRQAPGKERELVAAISRSGGRTYYADSVKGRFTISRDNAKNTVYLQMNSLKPEDTAVFYCAARDHYSTGGMKYWGQGTQVTVSS | high polyreactivity
QVQLVESGGVLVQAGGSIRLSCAASGSTSYIYVMGWYRQAPGKERELVATISKNGGDTYADSVKGRFTISRDNAKNTVYLQMNSLKPEDTAVYYCNARAFRYNRRISSRYNYWGQGTQVTVSS | high polyreactivity
QVQLVESGGVLVQAGGSLRISCAASGNTFVHYAMGWYRQAPGKEREFVAAISSSGGSTYYADSVKGRFTISRDNAKNTVYLQMNSLKPEDTAVYYCAAGGWPYSGGWFFQPNYDYWGQGTQVTVSS | low polyreactivity
QVQLVESGGVLVQAGGSLRLSCAASARIFAYSVMGWYRQAPGKEREFVAAISWSGGRTYYAHSVKGRFTISRDNAKNTVYLQMNSLKPEDTAVYYCNAGRPLWLAYGMDYWGQGTQVTVSS | low polyreactivity
QVQLVESGGVLVQAGGSLRLSCAASGFTFAKNAMGWYRQAPGKERELVATISRSGGSTYYADSVKGRFTISRDKAKNTVYLQMNSLKPEDTAVYYCNKKYKYLYDYWGQGTQVTVSS | high polyreactivity
QVQLVESGGVLVQAGGSLRLSCAASGFTFVAYTMGWYRQAPGKDRELVASIPNVGSTNYADSVKGRFTISRDKAMNTVYLLMNSLKPEDTAVYYCAAEYLGWHYLYLPFRDYDSWGQGTQVTVSS | low polyreactivity
QVQLVESGGVLVQAGGSLRLSCAASGFTFWDYAMGWYRHAPGKERELVAAISDNDGSTDYADSVKGRFTISRDNAKNTVYLQMNSLKPEDTAVYYCNAEIELPSKEGDYWGQGTQVTVSS | low polyreactivity
QVQLVESGGVLVQAGGSLRLSCAASGGTFGVYTMGWYRQSPGKERDLVAAISWSGGSTYYADSVKGRFRISRDNAKNTVYLQINSLKPEDTAVYYCAARLKYGRIGVDHWGQGTQVTVSS | high polyreactivity
QVQLVESGGVLVQAGGSLRLSCAASGRIFDRNAMGWYRQAPGKERELVAAIDDSGGDTSYADSVKGRFTISRDNAKNTVYLQMNSLKPEDTAVYYCNAGYADFVTYPRYYYWGQGTQVTVSS | low polyreactivity
QVQLVESGGVLVQAGGSLRLSCAASGRIFYNYGMGWYIQAPGKERELVARITTGGRTNYADSVKGRFTISRDNAKNTVYLQMNSLKPEDTAVYYCNADGYHSRWYYYNYDYWGQGTQVTVSS | low polyreactivity
QVQLVESGGVLVQAGGSLRLSCAASGRTFDRYAMGWYRQAPGKERELVAAITWSGGRTYYADSVKGRFTISRDNAKNTVYLHMNSLKPEDTAVYYCAADNSYRGYHSPYDYWGQGTQVTVSS | low polyreactivity
QVQLVESGGVLVQAGGSLRLSCAASGRTFGWYAMGWYRQAPGKERELVAAITWRGGSTYYADSVKGRFTISRDNAKNTVYLQMNILKPEDTAVYYCAAAAEKRSYYWGQGTQVTVSS | high polyreactivity
